Numbering of substitutions follows the chain as printed.

Binding result and EC50 data for two molecules are collected here from paper PMC10508174 (Cell reports, 2023).

One assay addresses DDX39B (residues 44-428) (human, UniProt Q13838 44-428). Kind of assay: crystal structure.
For assay [1], the target named is T1, SARNP-mut2 (R153A/F157A/R177A/F181A/R203A/F207A) (human, UniProt P82979 1-210, R153A | F157A | R177A | F181A | R203A | F207A).
T1 sequence (looked up): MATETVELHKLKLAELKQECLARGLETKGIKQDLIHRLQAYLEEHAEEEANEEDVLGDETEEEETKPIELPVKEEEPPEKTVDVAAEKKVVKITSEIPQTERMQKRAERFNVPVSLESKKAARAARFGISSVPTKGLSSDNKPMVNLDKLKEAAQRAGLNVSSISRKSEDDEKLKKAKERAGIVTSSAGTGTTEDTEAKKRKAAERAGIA
Kind of assay: MST.

In a further assay the target is T2, SARNP (residues 1-210) (human, UniProt P82979 1-210).
T2 sequence (looked up): T1 sequence (looked up) with A153R, A157F, A177R, A181F, A203R, A207F
Kind of assay: MST.

B1: Tho1 (residues 123-178) (domain or fragment, S. cerevisiae, UniProt P40040 123-178, looked up)
chain: EEIKAKALDLLNKKLHRANKFGQDQADIDSLQRQINRVEKFGVDLNSKLAEELGLV
For B1, the binding result with DDX39B (residues 44-428) is recorded as “binds”.

B2: DDX39B-CTD (residues 259-428) (domain or fragment, human, UniProt Q13838 259-428, looked up)
chain: LHGLQQYYVKLKDNEKNRKLFDLLDVLEFNQVVIFVKSVQRCIALAQLLVEQNFPAIAIHRGMPQEERLSRYQQFKDFQRRILVATNLFGRGMDIERVNIAFNYDMPEDSDTYLHRVARAGRFGTKGLAITFVSDENDAKILNDVQDRFEVNISELPDEIDISSYIEQTR
B2: the EC50 (in general, the concentration at which the effect is half-maximal) in assay [1] worked out at 3000 nM; in the assay with SARNP (residues 1-210), 1300 nM.
